Source: patent US20260263521A1, “ANTI-CD200R1 ANTIBODY AND USE THEREOF” (AIMED BIO INC., priority 2023, published 2026)

How the values were obtained:
[1] = biological target: human CD200R1 expressed on cells (Jurkat-CD200R1, U937-CD200R1, HH cells) (human) (UniProt Q8TD46); test: flow cytometry, HH cells; drawn table, row EC50
[2] = biological target: human CD200R1 expressed on cells (Jurkat-CD200R1, U937-CD200R1, HH cells) (human) (UniProt Q8TD46); test: flow cytometry, HH cells; drawn table
[3] = biological target: human CD200R1 expressed on cells (Jurkat-CD200R1, U937-CD200R1, HH cells) (human) (UniProt Q8TD46); test: cell-based or functional assay

Chain of human CD200R1 expressed on cells (Jurkat-CD200R1, U937-CD200R1, HH cells) (human) (Q8TD46 25-348): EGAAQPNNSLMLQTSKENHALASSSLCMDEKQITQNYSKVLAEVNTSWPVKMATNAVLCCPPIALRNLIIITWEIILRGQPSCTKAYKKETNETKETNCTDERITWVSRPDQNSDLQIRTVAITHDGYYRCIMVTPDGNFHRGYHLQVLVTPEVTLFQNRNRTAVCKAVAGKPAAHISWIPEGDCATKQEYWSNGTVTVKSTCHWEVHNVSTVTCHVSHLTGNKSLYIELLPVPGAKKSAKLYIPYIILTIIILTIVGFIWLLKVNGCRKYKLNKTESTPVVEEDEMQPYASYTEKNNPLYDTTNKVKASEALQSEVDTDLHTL

IgG1 (antibody)
EC50 [1]: 815 nM | Geo mean (%) at 0.05 nM [2]: 0.8% | Geo mean (%) at 0.19 nM [2]: 0.8% | Geo mean (%) at 0.78 nM [2]: 0.8% | Geo mean (%) at 3.125 nM [2]: 0.8% | Geo mean (%) at 12.5 nM [2]: 0.8% | Geo mean (%) at 50 nM [2]: 1% | Geo mean (%) at 200 nM [2]: 1.9% | Geo mean (%) at 800 nM [2]: 3.5%

hIgG4 kappa isotype control (Crownvivo, #C0004) (antibody)
IL-6 (pg/ml) at log [Ab] (M) -7, LPS-treated U937-CD200R1 cells [3]: 3510 pg/ml | TNF-α (pg/ml) at log [Ab] (M) -7, LPS-treated U937-CD200R1 cells [3]: 5090 pg/ml

LY3454738 (US 2020/0087395, I-4P, Eli Lilly) (antibody)
EC50 (nM), degree of signal transduction by the Dok2 protein [3]: > 10000 nM | IC50 (nM) of IL-6 inhibition, LPS-treated U937-CD200R1 cells [3]: 1.72 nM | IC50 (nM) of TNF-α inhibition, LPS-treated U937-CD200R1 cells [3]: 6.03 nM | IL-6 (pg/ml) at log [Ab] (M) -7, LPS-treated U937-CD200R1 cells [3]: 523 pg/ml | IL-6 (pg/ml) at log [Ab] (M) -8, LPS-treated U937-CD200R1 cells [3]: 1330 pg/ml | IL-6 (pg/ml) at log [Ab] (M) -9, LPS-treated U937-CD200R1 cells [3]: 2670 pg/ml | IL-6 (pg/ml) at log [Ab] (M) -10, LPS-treated U937-CD200R1 cells [3]: 3380 pg/ml | IL-6 (pg/ml) at log [Ab] (M) -11, LPS-treated U937-CD200R1 cells [3]: 3550 pg/ml | IL-6 (pg/ml) at log [Ab] (M) -12, LPS-treated U937-CD200R1 cells [3]: 4530 pg/ml | RLU (a.u.), phosphorylated Dok2 reporter, antibody dose 0.05 nM [3]: 9260 a.u. | RLU (a.u.), phosphorylated Dok2 reporter, antibody dose 0.10 nM [3]: 8400 a.u. | RLU (a.u.), phosphorylated Dok2 reporter, antibody dose 0.20 nM [3]: 8000 a.u. | RLU (a.u.), phosphorylated Dok2 reporter, antibody dose 0.39 nM [3]: 8960 a.u. | RLU (a.u.), phosphorylated Dok2 reporter, antibody dose 0.78 nM [3]: 8900 a.u. | RLU (a.u.), phosphorylated Dok2 reporter, antibody dose 1.56 nM [3]: 9100 a.u. | RLU (a.u.), phosphorylated Dok2 reporter, antibody dose 3.13 nM [3]: 9470 a.u. | RLU (a.u.), phosphorylated Dok2 reporter, antibody dose 6.25 nM [3]: 8930 a.u. | RLU (a.u.), phosphorylated Dok2 reporter, antibody dose 12.5 nM [3]: 13000 a.u. | RLU (a.u.), phosphorylated Dok2 reporter, antibody dose 25 nM [3]: 22700 a.u. | RLU (a.u.), phosphorylated Dok2 reporter, antibody dose 50 nM [3]: 25600 a.u. | TNF-α (pg/ml) at log [Ab] (M) -7, LPS-treated U937-CD200R1 cells [3]: 472 pg/ml | TNF-α (pg/ml) at log [Ab] (M) -8, LPS-treated U937-CD200R1 cells [3]: 1040 pg/ml | TNF-α (pg/ml) at log [Ab] (M) -9, LPS-treated U937-CD200R1 cells [3]: 1480 pg/ml | TNF-α (pg/ml) at log [Ab] (M) -10, LPS-treated U937-CD200R1 cells [3]: 3760 pg/ml | TNF-α (pg/ml) at log [Ab] (M) -11, LPS-treated U937-CD200R1 cells [3]: 4950 pg/ml | TNF-α (pg/ml) at log [Ab] (M) -12, LPS-treated U937-CD200R1 cells [3]: 5490 pg/ml
